Assay results as given in publication PMC6018903.

Biological target: OsSEC3A_C (amino acids 521-888)-NLuc (rice (Oryza sativa))
Assay: split reporter (BiFC, NanoBiT); split firefly luciferase complementation, NLuc and CLuc fusions under the 35S promoter co-expressed in N. benthamiana leaves, read 3 d after infiltration

- fold LUC activity over the negative vector controls: 15 fold
Substance: CLuc-OsSNAP32 (natural protein)
